# In patent publication US7374920B2, “Ginkgo biloba levopimaradiene synthase” (priority 2001, dated 2008):
# “Also recorded” adds a separate entry of the source.
# What was measured:
# [1] = in vitro enzymatic assay of levopimaradiene synthase constructs expressed in E. coli BL21(DE3); type: biochemical, Escherichia coli
# Protocol: The desired plasmids were prepared by ligating the mutated gene insert into the similarly digested vectors pET32c(+) (Novagen; Madison, Wis.) and pRS426GAL (Hua, 2000), a multiple copy yeast expression vector. These plasmids was expressed in E. coli BL21(DE3) (Novagen; Madison, Wis.). E. coli cells were grown in Luria-Bertani medium supplemented with 100 μg/mL ampicillin at 37° C. with shaking to OD600 ˜0.6. The following parameters were tested: isopropyl 1-thio-β-D-galactopyranoside (IPTG) concentration (50, 100, 250, 500, and 1000 μM); and temperature and time (20° C. for 2, 3, 4, 6, 21 hours, 22° C. for 6, 8, 16, 19, 22, 45 hours, and 30° C. for 3, 6 hours). The following assay conditions were tested to obtain maximum diterpene product yield: 30 mM HEPES (N-2-hydroxyethylpiperazine-N′-[…]), pH 6.9, 7.2, 7.6, 8.0; 30 mM Tris (tris(hydroxymethyl)aminomethane hydrochloride), pH 7.4, 7.8, 8.2; 1, 5, 10% glycerol; 1, 3, 5, 10, 20 mM DTT (dithiothreitol); 20 mM β-mercaptoethanol; 2, 5, 8% Triton X-100; 5% Tween 80; 0, 2, 7.5, 20, 50 mM MgCl2; 0, 30, 500, 1000 μM MnCl2; 2, 10, 13.3, 20, 40, 80, 200 μM GGDP; and 23° C. and 32° C. assay temperatures.
# Optimal soluble protein production and diterpene yield were obtained with the following conditions. Cell cultures were induced with 1 mM IPTG at 20° C. with shaking for 6 hours and lysed by sonication in 30 mM HEPES, pH 7.2, 5 mM DTT, and 5% glycerol. The soluble fraction of the lysate (100 mg/mL) was incubated with 20 μM GGDP in 30 mM HEPES, pH 7.2, 5 mM DTT, 5% glycerol, 2 mM MgCl2, and 500 μM MnCl2 overnight at 32° C.
# (§1) All in vitro reactions were extracted 3× with hexane and dried over MgSO4. The reaction was further extracted twice with diethyl ether and dried over MgSO4. Thereafter, the crude lysate was suspended in 100 mM Tris, pH 8.0 containing 2.9 units/mg apyrase (a dephosphorylating agent) and 10 units/μL calf intestinal alkaline phosphatase, incubated at 30° C. for 3 hours, and extracted with diethyl ether as noted above (Croteau and Cane, 1985). The crude reaction mixtures were eluted over SiO2, concentrated, and analyzed by GC and GC/MS.
# (§2) Gas chromatography spectra were obtained on a Hewlett Packard 6890 Series GC System equipped with an Rtx-5 capillary column (Restek, 30 m×0.25 mm i.d., 0.10 μm df). The following separation conditions and temperature program were employed: injector port 250° C., FID 250° C., split ratio 39:1, helium flow 20 cm/s (0.6 mL/min), 150° C. hold 5 min, increase to 250° C. (5° C./min), hold 5 min. GC/MS spectra were obtained on a Hewlett-Packard 5890A instrument with a 30-m DB-5 ms column (J&W Scientific Inc., 0.25 mm i.d., 0.10 μm df). The following separation conditions and temperature program were employed: injector port 280° C., transfer lines: 280° C., helium flow at 30 cm/s (1 mL/min) with splitless injection at 150° C. hold 3 min, increase to 250° C. (5° C./min), hold 5 min. Mass spectra (m/z 50 to 500) were obtained on a VG ZAB-HF reverse-geometry double-focusing instrument at 70 eV with an electron-impact ion source (200° C.). Accelerating voltage was set to 8 kV and the resolution was 1000 (10% valley).
# The skilled artisan recognizes that lysis and assay conditions should be optimized. Examples of parameters that can be adjusted to optimize conditions include altering buffer, pH, reductant, reductant concentration, metal cofactors, cofactor concentrations, glycerol concentrations, substrate concentrations, and assay temperatures. […] Maximum soluble protein production and diterpene yield were obtained with the following conditions. Cell cultures were induced with 1 mM IPTG at 20° C. with shaking for 6 hours and lysed by sonication in 30 mM HEPES, pH 7.2, 5 mM DTT, and 5% glycerol. The soluble fraction of the lysate (100 mg/1 mL) was incubated with 20 μM GGDP in 30 mM HEPES, pH 7.2, 5 mM DTT, 5% glycerol, 2 mM MgCl2, and 500 μM MnCl2 overnight at 32° C. […]
# EHY18 yeast cells = experiment: in vivo expression of GbLS constructs in yeast strain EHY18 that accumulates GGDP, GC quantitation of products; type: cell-based
# Protocol: The yeast strain of the copending application employed was EHY18 (Hart, E., 2001) which was further transformed with multiple-copy yeast expression vectors comprising an isolated and purified nucleic acid sequence of GbLS or derivatives thereof, which are described herein under control of the GAL1 inducible promoter. Yeast cells were grown to saturation in 5 mL ScD-Leu-Ura at 30° C. Cells were harvested (1300×g, 2 min, 25° C.) and resuspended in 500 μL sterile Milli-Q H2O (2×). The washed cells were resuspended in 5 mL sterile Milli-Q H2O. An aliquot of the culture (5 μL) was added to a 25 mL Corex tube containing pre-prepared 2× resin and 5 mL ScG-Leu-Ura (4% galactose) and shaken at 30° C. for 6 days. Resin was collected by filtration through a Kontes chromatography column (1.7 cm diameter) and rinsed with dI H2O until eluent was clear. The resin was incubated in 2 mL ethanol for several minutes, eluted, and repeated 2×. The combined eluents were dissolved in approximately 3 mL dI H2O and extracted (3×) with 3 mL hexane. The combined extracts were concentrated under a stream of nitrogen. GC analysis (quantitation extrapolated from 0.2 mg/mL longifolene external standard) indicated the following product profile (obtained from triplicate measurement of three cultures): 0.61±0.20 mg/L levopimaradiene, 0.04±0.01 mg/L abietadiene, 0.15±0.05 mg/L abietatriene, 0.16±0.13 mg/L (+)-copalol, and 1.79±0.90 mg/L geranylgeraniol. GC/MS fragmentation confirmed the identity of each compound.
# A large scale culture (1-L) was prepared by growing the yeast cells to saturation in 5 mL ScD-Leu-Ura at 30° C. Cells were harvested (1300×g, 2 min, 25° C.) and resuspended in 500 μL sterile Milli-Q H2O (2×). The washed cells were resuspended in 5 mL sterile Milli-Q H2O. An aliquot of the culture (1 mL) was added to a 2 L flask containing 1-L ScG-Leu-Ura (4% galactose) and 88.27 g resin in 120 mL Milli-Q H2O (pre-prepared). The resin was eluted with ethanol (3×100 mL with 20 min incubation periods), which was subsequently extracted (6×) with hexane. The combined extracts were dried over magnesium sulfate, filtered, and concentrated under reduced pressure. GC analysis (quantitation extrapolated from 0.2 mg/mL longifolene external standard) indicated the following product profile (obtained from triplicate measurement): 0.29±0.04 mg/L levopimaradiene, 0.04±0.02 mg/L abietadiene, 0.13±0.04 mg/L abietatriene, 0.11±0.02 mg/L (+)-copalol, and 0.56±0.03 mg/L geranylgeraniol. GC/MS analyses confirmed the production of the above noted diterpenes, which included hydrocarbons and an alcohol.
# Further optimization studies employed the Ser61 construct. Factors influencing diterpene production included induction period and concentration of galactose and resin in the inducing medium.
# [2] = in vitro assay of levopimaradiene synthase constructs expressed in wild-type S. cerevisiae JBY575; type: biochemical, Saccharomyces cerevisiae; conditions: wild-type S. cerevisiae JBY575, galactose 48 hours, lysate with GGDP
# Protocol: Expression in S. cerevisiae JBY575, which represents wild-type yeast, was observed. JBY575 cells transformed with pRS426GAL inserted with the putative levopimaradiene synthase were grown in synthetic complete medium lacking uracil and supplemented with 2% glucose and 1.5% agar at 30° C. to saturation and induced with galactose for 48 hours. Cells were harvested, resuspended in lysis buffer, and mixed by vortexing over glass beads. The lysate was assayed with 60 μM GGDP in the presence and absence of 0.2% and 5% Triton X-100.
# as §1, §2
# The skilled artisan recognizes that lysis and assay conditions should be optimized. Examples of parameters that can be adjusted to optimize conditions include altering buffer, pH, reductant, reductant concentration, metal cofactors, cofactor concentrations, glycerol concentrations, substrate concentrations, and assay temperatures. […] Maximum soluble protein production and diterpene yield were obtained with the following conditions. Cell cultures were induced with 1 mM IPTG at 20° C. with shaking for 6 hours and lysed by sonication in 30 mM HEPES, pH 7.2, 5 mM DTT, and 5% glycerol. The soluble fraction of the lysate (100 mg/1 mL) was incubated with 20 μM GGDP in 30 mM HEPES, pH 7.2, 5 mM DTT, 5% glycerol, 2 mM MgCl2, and 500 μM MnCl2 overnight at 32° C. Yeast expression was induced with galactose at 30° C. for 48 hours and the cells were lysed and assayed according to the conditions noted.
Molecule,metal cofactor requirement of synthase activity ([1]; MgCl2 and MnCl2 varied),increase in levopimaradiene yield relative to the bacterial expression system (EHY18 yeast cells; EHY18),diterpene product on yeast expression [2],"diterpene product on bacterial expression ([1]; E. coli BL21(DE3), soluble lysate fraction, 20 μM GGDP, overnight at 32° C., GC and GC/MS)",diterpene production relative to wild-type synthase (EHY18 yeast cells; EHY18),"diterpene products on expression in EHY18 (EHY18 yeast cells; GC, GC/MS)"
"Levopimaradiene synthase: enzyme which catalyzes the synthesis of levopimaradiene from geranylgeranyl diphosphate; SEQ.ID.NO:2 (protein, listed as Ginkgo biloba) MAGVLFANLPCSLQLSPKVPFRQSTNILIPFHKRSSFGFNAQHCVRSHLRLRWNCVGIHASAAETRPDQLPQEERFVSRLNADYHPAVWKDDFIDSLTSPNSHATSKSSVDETINKRIQTLVKEIQCMFQSMGDGETNPSAYDTAWVARIPSIDGSGAPQFPQTLQWILNNQLPDGSWGEECIFLAYDRVLNTLACLLTLKIWNKGDIQVQKGVEFVRKHMEEMKDEADNHRPSGFEVVFPAMLDEAKSLGLDLPYHLPFISQIHQKRQKKLQKIPLNVLHNHQTALLYSLEGLQDVVDWQEITNLQSRDGSFLSSPASTACVFMHTQNKRCLHFLNFVLSKFGDYVPCHYPLDLFERLWAVDTVERLGIDRYFKKEIKESLDYVYRYWDAERGVGWARCNPIPDVDDTAMGLRILRLHGYNVSSDVLENFRDEKGDFFCFAGQTQIGVTDNLNLYRCSQVCFPGEKIMEEAKTFTTNHLQNALAKNNAFDKWAVKKDLPGEVEYAIKYPWHRSMPRLEARSYIEQFGSNDVWLGKTVYKMLYVSNEKYLELAKLDFNMVQALHQKETQHIVSWWRESGFNDLTFTRQRPVEMYFSVAVSMFEPEFAACRIAYAKTSCLAVILDDLYDTHGSLDDLKLFSEAVRRWDISVLDSVRDNQLKVCFLGLYNTVNGFGKDGLKEQGRDVLGYLRKVWEGLLASYTKEAEWSAAKYVPTFNEYVENAKVSIALATVVLNSIFFTGELLPDYILQQVDLRSKFLHLVSLTGRLINDTKTYQAERNRGELVSSVQCYMRENPECTEEEALSHVYGIIDNALKELNWELANPASNAPLCVRRLLFNTARVMQLFYMYRDGFGISDKEMKDHVSRTLFDPVA",independent of magnesium but required manganese cofactor for catalysis,three- to six,,,,
"Leu^80: Ginkgo biloba levopimaradiene synthase truncated at Arg^79-Leu^80; amino acid sequence SEQ.ID.NO:37 (protein, listed as Ginkgo biloba) MLNADYHPAVWKDDFIDSLTSPNSHATSKSSVDETINKRIQTLVKEIQCMFQSMGDGETNPSAYDTAWVARIPSIDGSGAPQFPQTLQWILNNQLPDGSWGEECIFLAYDRVLNTLACLLTLKIWNKGDIQVQKGVEFVRKHMEEMKDEADNHRPSGFEVVFPAMLDEAKSLGLDLPYHLPFISQIHQKRQKKLQKIPLNVLHNHQTALLYSLEGLQDVVDWQEITNLQSRDGSFLSSPASTACVFMHTQNKRCLHFLNFVLSKFGDYVPCHYPLDLFERLWAVDTVERLGIDRYFKKEIKESLDYVYRYWDAERGVGWARCNPIPDVDDTAMGLRILRLHGYNVSSDVLENFRDEKGDFFCFAGQTQIGVTDNLNLYRCSQVCFPGEKIMEEAKTFTTNHLQNALAKNNAFDKWAVKKDLPGEVEYAIKYPWHRSMPRLEARSYIEQFGSNDVWLGKTVYKMLYVSNEKYLELAKLDFNMVQALHQKETQHIVSWWRESGFNDLTFTRQRPVEMYFSVAVSMFEPEFAACRIAYAKTSCLAVILDDLYDTHGSLDDLKLFSEAVRRWDISVLDSVRDNQLKVCFLGLYNTVNGFGKDGLKEQGRDVLGYLRKVWEGLLASYTKEAEWSAAKYVPTFNEYVENAKVSIALATVVLNSIFFTGELLPDYILQQVDLRSKFLHLVSLTGRLINDTKTYQAERNRGELVSSVQCYMRENPECTEEEALSHVYGIIDNALKELNWELANPASNAPLCVRRLLFNTARVMQLFYMYRDGFGISDKEMKDHVSRTLFDPVA",,,yielded levopimaradiene as the sole diterpene; also recorded: yielded levopimaradiene synthase activity,produced levopimaradiene as the exclusive diterpene hydrocarbon; also recorded: provided enzymatic activity capable of cyclizing geranylgeranyl diphosphate to levopimaradiene,approximately four,"produced (+)-copalol, levopimaradiene, abietadiene, and abietatriene"
